B1: V. cholerae FtsX (natural protein)
chain: MAVKPGNQKISKTTKSTKSKPRDVKRAKTDSFLAIHFKQAKASFAALWRRPLGNILTLAVISMALALPASLYLLSKNIASVAERVAEPSQLSVYLHIDTPEPRIIVLKDDLERRDEIAKVKYISPQQGLDDLSQYAGFEQAISLLDNATLPAVLVVTPKVDSREQIQTLAKALQAEEGVTDVRMDEDWFARLDAIRHLATIVVISLSSLMLMSVFLIVGNTLRFNVQANKEEIQTMKLIGATDAYILRPYLYSGMWFGLLGAVAAWLLTALMTILLNGAVEALAQLYDSRFRLIGLGWDESLLLLMLGVFLGCVAAKVSAKRHLKEIEPV
B2: V. cholerae FtsE (natural protein)
chain: MIRFQQVSKAYRGGRQALQKVDFHLRRGEMAFLGGHSGAGKSTLLKLICAIERPTDGKISFNGHDITRIPNKDIPFLRRNIGIVFQDHRLLMDRSIYDNVALPMRIESISENEIKRRVSAALDKTGLLDKARCLPSQLSGGEQQRVGIARAVVNRPTLLLADEPTGNLDPELSSRVLRLFEEFNRAGVTILLATHDIHLVNSRPQYRHLELNQGFLSEVADYGR

Biological target: the molecule itself
Assay: cryo-EM structure

Row | Protein | stoichiometry N
1 | B1 | 2
2 | B2 | 2

From article doi:10.1101/2023.10.06.561269 (bioRxiv, 2023)
